Measured values taken from patent US12366576B2, “Compositions, assays, and methods for direct modulation of fatty acid metabolism” (Dana-Farber Cancer Institute, Inc., priority 2016, dated 2025).
Bridge positions count the residues as written; N and C are the ends. Square brackets hold non-standard residues; d marks the D form. Ends that are not written are not given here. S5 = C=CCCC[C@](C)(N)C(=O)O

Legend:
VLCAD [1] = target: T1, VLCAD (Homo sapiens, UniProt P49748); assay: 19F NMR binding study with fluorinated SAHB; settings: fluorinated SAHB 25 μM, VLCAD 0-125 μM
T1 construct: 10x His (N); made in house; host or cells: E. coli BL21(DE3), pET19b
T1 sequence (P49748 40-655): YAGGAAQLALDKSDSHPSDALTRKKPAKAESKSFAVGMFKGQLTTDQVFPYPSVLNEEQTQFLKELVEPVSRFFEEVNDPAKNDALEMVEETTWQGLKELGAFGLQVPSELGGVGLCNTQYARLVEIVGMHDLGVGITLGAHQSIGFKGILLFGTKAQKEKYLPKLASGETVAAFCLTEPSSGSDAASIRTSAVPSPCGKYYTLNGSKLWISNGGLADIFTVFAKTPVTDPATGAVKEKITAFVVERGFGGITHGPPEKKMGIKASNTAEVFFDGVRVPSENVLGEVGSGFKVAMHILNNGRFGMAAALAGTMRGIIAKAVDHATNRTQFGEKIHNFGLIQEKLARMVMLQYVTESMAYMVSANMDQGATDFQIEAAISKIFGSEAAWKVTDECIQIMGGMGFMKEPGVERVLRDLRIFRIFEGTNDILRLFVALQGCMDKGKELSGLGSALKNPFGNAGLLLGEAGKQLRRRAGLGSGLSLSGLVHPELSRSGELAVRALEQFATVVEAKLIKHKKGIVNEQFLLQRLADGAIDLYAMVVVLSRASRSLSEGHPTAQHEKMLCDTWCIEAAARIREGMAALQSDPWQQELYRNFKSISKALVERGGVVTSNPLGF
Method: (§1) To measure the direct binding interaction, ^19F NMR binding studies were conducted using fluorinated analogs of MCL-1 SAHBD. […] Both SAHBs, however, bind MCL-1ΔNΔC, as illustrated by a chemical shift of the peptide NMR peak in both cases (FIG. 15). […] To perform these experiments, N-terminal Btn-PEG analogs of the peptides were immobilized onto streptavidin probes that were then placed into protein solutions at a variety of concentrations to measure ligand-target association.
VLCAD. Mature human VLCAD lacking its cleavable leader sequence (aa 40-655) (NP_000009.1) was subcloned into the pET19b vector (Novagen) using NdeI and XhoI restriction sites. Correct insertion was confirmed by DNA sequencing. […]
(§2) To determine binding of SAHBs to VLCAD, fluorinated SAHB (25 μM) and VLCAD (0-125 μM) were mixed together in VLCAD FPLC buffer including 10% D2O to a final volume of 500 μL. […] The extent to which VLCAD bound the peptide was determined by measuring the peak width at half height (ν1/2) of the peptide ^19F signal. […] MCL-1ΔNΔC binding to SAHBs causes a change in the ^19F chemical shift of the peptide resulting in two peptide signals (instead of peak broadening), so extent of binding was quantified by measuring the peak height of “unbound” peptide relative to the bound peptide signal.

VLCAD [2] = target: T1, VLCAD; assay: Biolayer interferometry; type: binding; settings: Biotin-PEG peptide immobilized on streptavidin sensors
Method: as §1
VLCAD. Mature human VLCAD lacking its cleavable leader sequence (aa 40-655) (NP_000009.1) was subcloned into the pET19b vector (Novagen) using NdeI and XhoI restriction sites. Correct insertion was confirmed by DNA sequencing. The 10× His-tagged VLCAD construct was expressed in BL21(DE3) E. coli, and once cells reached an OD of 0.8 after growing at 37° C., they were induced with 0.5 mM […] (IPTG) (Gold Biotechnology I2481C) at 37° C. for 4 hours. Bacterial pellets were resuspended in lysis buffer (500 mM NaCl, 50 mM HEPES, 5% glycerol, pH 7.5, complete protease inhibitor tablet) and lysed by microfluidization (M-110L; Microfluidics). […]
BLI binding measurements were performed using an Octet Red384 System (ForteBio). […] Binding parameters were calculated using the accompanying Octet Software version 9 (ForteBio).

MCL-1ΔNΔC = target: T2, MCL-1ΔNΔC (Homo sapiens, UniProt Q07820); assay: 19F NMR binding study with fluorinated SAHB; settings: fluorinated SAHB 25 μM, MCL-1ΔNΔC 0-45 μM
T2 construct: The MCL-1ΔNΔC construct was grown and expressed in E. coli as previously described; made in house; host or cells: E. coli BL21(DE3)
Method: as §1
MCL-1ΔNΔC. The MCL-1ΔNΔC construct was grown and expressed in E. coli as previously described (see, e.g., Stewart, Nat Chem Biol., 6(6):595-601 (2010)). Transformed BL21(DE3) E. coli were grown at 37° C. to an OD of 0.8, after which they were induced with 0.5 mM IPTG. […]
as §2

T2 sequence (Q07820 172-320 limits assumed, stated change not applied): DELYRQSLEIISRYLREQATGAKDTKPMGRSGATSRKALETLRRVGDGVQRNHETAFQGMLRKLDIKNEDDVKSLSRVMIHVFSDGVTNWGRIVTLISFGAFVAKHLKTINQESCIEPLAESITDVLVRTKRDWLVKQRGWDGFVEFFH

MCL-1 SAHBD: hydrocarbon-stapled peptide mimicking the MCL-1 BH3 domain (Stabilized Alpha-Helix of BCL-2 Domain), SEQ ID NO:19 (RKALETLRRVGDGV[S5]RNH[S5]TAF; staple 15-19)
19F NMR peptide peak broadening on VLCAD titration (VLCAD [1]): peak broadens, indicative of a direct binding event
biolayer interferometry association with VLCAD (VLCAD [2]): engages VLCAD
19F NMR binding to MCL-1ΔNΔC (chemical shift of the peptide peak) (MCL-1ΔNΔC): binds directly
